Assay results as given in US20070281326A1 (QUARK PHARMACEUTICALS, published 2007).

Columns and labels:
TSC2 [1] = target: T1, TSC2 (human, UniProt P49815 1-1807, limits assumed); test: pull-down from cell extract with 6XHis baits (FIG. 13)
T1 construct: TSC2 without a stated tag, endogenous or expressed from transfected cDNA in 293T cell extracts; also called tuberin; endogenous TSC2

TSC2 [2] = target: T1, TSC2; test: co-IP from transfected 293T extract, immunoblot (FIG. 11)
HA-tagged TSC2 = target: T2, HA-tagged TSC2 (human, UniProt P49815 1-1807); test: co-IP with anti-FLAG from CoCl2-treated 293T cells (FIG. 25)
T2 construct: Expressed in 293T cells; used as cell extract; also called HA-TSC2; full length HA-tagged TSC2; not shown: HA tag

[3] = target: T3, TSC2 “N” fragment (a.a. 2-935), HA-tagged (human, UniProt P49815 2-935); test: co-IP with anti-FLAG from 293T extract, anti-HA blot (FIG. 17)
T3 construct: also called HA-“N” fragment of TSC2; not shown: HA tag

TSC2 [4] = target: T1, TSC2; test: summary of Example 6
[5] = target: T4, HA-SV5-full length hRTP801 (human, UniProt Q9NX09 1-232); test: co-IP with M2 anti-FLAG resin from CoCl2-treated 293T HEK extract (FIG. 21)
T4 construct: Expressed in 293T HEK cells; also called HA-full length hRTP801; HA-SV5-hRTP801; not shown: HA tag; SV5 tag
T4 sequence: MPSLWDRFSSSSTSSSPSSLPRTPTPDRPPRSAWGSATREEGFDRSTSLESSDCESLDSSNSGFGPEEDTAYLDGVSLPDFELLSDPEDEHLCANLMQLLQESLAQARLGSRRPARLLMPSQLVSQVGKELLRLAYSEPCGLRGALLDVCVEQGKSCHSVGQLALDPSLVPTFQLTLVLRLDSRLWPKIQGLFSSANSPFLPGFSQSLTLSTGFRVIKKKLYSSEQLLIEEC

T1 sequence (P49815 other isoform, or with tags, fused parts or gaps limits assumed): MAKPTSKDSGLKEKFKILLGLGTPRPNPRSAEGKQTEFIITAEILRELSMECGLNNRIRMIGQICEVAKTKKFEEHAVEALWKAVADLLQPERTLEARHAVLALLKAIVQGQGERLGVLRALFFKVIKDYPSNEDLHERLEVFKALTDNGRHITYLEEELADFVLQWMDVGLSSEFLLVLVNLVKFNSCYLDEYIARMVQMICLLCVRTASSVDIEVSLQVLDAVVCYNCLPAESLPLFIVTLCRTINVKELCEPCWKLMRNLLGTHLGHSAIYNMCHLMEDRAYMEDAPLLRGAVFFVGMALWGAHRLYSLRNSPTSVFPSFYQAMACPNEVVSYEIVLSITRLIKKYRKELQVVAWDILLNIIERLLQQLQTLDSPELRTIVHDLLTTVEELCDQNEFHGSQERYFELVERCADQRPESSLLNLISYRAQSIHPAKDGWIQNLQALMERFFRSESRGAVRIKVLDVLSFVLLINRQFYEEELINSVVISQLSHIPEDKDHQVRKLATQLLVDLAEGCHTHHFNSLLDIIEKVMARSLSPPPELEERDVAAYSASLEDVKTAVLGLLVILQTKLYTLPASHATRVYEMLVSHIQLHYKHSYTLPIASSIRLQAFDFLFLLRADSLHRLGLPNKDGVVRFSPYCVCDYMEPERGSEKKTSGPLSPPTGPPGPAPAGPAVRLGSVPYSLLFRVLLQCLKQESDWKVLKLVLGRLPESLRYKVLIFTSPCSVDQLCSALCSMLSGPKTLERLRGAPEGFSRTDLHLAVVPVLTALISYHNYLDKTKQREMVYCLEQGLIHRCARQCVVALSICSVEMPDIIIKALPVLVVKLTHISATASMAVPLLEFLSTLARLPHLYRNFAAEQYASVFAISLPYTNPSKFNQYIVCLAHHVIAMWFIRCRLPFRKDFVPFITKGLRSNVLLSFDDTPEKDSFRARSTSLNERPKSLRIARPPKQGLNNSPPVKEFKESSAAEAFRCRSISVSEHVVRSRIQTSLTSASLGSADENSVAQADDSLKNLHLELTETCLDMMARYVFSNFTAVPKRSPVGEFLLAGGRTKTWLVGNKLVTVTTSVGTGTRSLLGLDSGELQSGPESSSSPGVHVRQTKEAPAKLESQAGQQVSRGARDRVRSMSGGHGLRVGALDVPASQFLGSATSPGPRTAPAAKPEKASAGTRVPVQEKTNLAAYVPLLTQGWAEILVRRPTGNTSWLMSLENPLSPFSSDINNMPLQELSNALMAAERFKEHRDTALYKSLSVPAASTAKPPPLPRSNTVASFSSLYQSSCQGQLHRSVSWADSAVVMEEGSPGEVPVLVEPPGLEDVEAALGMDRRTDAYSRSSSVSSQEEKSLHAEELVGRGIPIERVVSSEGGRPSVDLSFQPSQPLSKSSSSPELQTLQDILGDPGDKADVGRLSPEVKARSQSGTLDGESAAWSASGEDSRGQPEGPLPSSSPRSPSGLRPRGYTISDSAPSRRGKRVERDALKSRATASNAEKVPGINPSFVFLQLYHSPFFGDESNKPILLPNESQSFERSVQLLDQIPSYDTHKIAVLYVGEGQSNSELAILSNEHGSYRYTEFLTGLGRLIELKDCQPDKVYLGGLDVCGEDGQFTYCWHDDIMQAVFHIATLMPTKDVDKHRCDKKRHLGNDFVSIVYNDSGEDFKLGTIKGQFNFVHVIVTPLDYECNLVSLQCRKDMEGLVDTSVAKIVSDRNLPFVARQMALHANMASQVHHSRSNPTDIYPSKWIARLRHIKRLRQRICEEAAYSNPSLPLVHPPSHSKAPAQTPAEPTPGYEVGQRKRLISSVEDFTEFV
T2 sequence (P49815 other isoform, or with tags, fused parts or gaps limits assumed): as above
T3 sequence (P49815 other isoform, or with tags, fused parts or gaps): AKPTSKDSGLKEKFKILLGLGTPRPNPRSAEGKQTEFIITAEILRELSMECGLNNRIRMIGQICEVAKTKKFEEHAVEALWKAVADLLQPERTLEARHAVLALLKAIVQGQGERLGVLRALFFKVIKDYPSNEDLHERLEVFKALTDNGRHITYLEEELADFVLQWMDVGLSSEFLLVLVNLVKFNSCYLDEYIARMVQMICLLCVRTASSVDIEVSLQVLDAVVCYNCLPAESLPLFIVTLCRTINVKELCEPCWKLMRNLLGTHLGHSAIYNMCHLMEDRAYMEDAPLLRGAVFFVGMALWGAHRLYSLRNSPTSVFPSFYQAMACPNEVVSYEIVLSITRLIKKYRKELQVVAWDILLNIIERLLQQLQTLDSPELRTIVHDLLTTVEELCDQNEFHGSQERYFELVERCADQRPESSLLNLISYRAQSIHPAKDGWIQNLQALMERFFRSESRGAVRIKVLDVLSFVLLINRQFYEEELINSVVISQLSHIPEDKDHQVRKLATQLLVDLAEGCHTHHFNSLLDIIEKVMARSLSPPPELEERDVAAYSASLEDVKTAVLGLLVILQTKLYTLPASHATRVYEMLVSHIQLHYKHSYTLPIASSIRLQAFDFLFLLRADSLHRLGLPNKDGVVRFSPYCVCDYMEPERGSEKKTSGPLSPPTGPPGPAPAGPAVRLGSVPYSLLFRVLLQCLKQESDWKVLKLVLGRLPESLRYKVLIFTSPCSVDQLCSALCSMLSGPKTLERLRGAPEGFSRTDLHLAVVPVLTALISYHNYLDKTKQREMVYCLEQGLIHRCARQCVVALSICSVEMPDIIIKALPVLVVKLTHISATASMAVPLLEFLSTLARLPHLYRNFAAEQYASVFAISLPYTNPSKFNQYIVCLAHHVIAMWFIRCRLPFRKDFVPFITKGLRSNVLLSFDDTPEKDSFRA

B1: 6XHis hRTP801 N-fragment (other)
chain: MPSLWDRFSSSSTSSSPSSLPRTPTPDRPPRSAWGSATREEGFDRSTSLESSDCESLDSSNSGFGPEEDTAYLDGVSLPDFELLSDPE
notes: not shown: 6XHis tag
binding result (TSC2 [1]): no binding

B2: FLAG-hRTP801 (other)
chain: T4 sequence
notes: Expressed by transient transfection in 293T cells; full length hRTP801 with FLAG tag; also called FLAG-full length hRTP801; FLAG-RTP801; not shown: FLAG tag
binding result (TSC2 [2]): binds
binding result (HA-tagged TSC2): binds
binding result [3]: binds

B3: hRTP801 (other)
chain: T4 sequence
notes: also called endogenous hRTP801; exogenous hRTP801
binding result (TSC2 [4]): binds

B4: FLAG-(N-C2)hRTP801 (other)
chain: MPSLWDRFSSSSTSSSPSSLPRTPTPDRPPRSAWGSATREEGFDRSTSLESSDCESLDSSNSGFGPEEDTAYLDGVSLPDFELLSDPEDEHLCANLMQLLQESLAQARLGSRRPARLLMPSQLVSQVGKELLRLAYSEPCGLRGALLDVCVEQGKSCHSVGQLALDPSLVPTFQLTLVLRLDSRLWPKIQGLFSS
notes: also called hRTP801 N-C2 fragment; hRTP801 N-C2 mutant; not shown: FLAG tag
binding result [5]: binds
